Patent US20180118846A1
Blank lines part the entries; values can stand above or below the substance they belong to.

Legend:
Experiment in all cases: cell-based or functional assay
CEACAM5 (human) = CEACAM5 (human) (UniProt P06731)
CEACAM6 (human) = CEACAM6 (human) (UniProt P40199)
CD19 (human) = CD19 (human) (UniProt P15391)
CD20 (human) = CD20 (human) (UniProt P11836)
CD22 (human) = CD22 (human) (UniProt P20273)
HLA-DR (human) = target: HLA-DR (human)

Chain of CD20 (human) (P11836 whole entry): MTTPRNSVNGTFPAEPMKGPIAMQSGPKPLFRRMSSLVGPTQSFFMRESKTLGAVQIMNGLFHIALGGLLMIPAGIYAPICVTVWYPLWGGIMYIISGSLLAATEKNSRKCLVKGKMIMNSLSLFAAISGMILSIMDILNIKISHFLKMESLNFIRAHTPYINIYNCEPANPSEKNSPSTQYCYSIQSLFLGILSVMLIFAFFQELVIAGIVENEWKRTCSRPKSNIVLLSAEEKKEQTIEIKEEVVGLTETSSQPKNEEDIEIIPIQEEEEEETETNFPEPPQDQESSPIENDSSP
Chain of CD19 (human) (P15391 20-556): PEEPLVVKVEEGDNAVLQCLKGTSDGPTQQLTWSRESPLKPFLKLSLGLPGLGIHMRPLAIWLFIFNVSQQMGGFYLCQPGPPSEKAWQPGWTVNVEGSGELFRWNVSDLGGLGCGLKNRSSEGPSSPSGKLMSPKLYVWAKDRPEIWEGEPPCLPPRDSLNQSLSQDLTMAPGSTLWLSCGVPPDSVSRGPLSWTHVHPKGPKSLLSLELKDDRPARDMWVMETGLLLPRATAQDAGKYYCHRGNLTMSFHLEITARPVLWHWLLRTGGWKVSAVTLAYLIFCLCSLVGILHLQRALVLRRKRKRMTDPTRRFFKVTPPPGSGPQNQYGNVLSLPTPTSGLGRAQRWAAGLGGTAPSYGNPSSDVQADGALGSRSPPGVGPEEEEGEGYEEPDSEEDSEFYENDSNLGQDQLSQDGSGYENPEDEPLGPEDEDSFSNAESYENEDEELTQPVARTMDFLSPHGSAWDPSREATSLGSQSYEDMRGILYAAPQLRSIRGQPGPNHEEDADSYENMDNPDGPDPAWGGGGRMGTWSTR
Chain of CEACAM5 (human) (P06731 35-702): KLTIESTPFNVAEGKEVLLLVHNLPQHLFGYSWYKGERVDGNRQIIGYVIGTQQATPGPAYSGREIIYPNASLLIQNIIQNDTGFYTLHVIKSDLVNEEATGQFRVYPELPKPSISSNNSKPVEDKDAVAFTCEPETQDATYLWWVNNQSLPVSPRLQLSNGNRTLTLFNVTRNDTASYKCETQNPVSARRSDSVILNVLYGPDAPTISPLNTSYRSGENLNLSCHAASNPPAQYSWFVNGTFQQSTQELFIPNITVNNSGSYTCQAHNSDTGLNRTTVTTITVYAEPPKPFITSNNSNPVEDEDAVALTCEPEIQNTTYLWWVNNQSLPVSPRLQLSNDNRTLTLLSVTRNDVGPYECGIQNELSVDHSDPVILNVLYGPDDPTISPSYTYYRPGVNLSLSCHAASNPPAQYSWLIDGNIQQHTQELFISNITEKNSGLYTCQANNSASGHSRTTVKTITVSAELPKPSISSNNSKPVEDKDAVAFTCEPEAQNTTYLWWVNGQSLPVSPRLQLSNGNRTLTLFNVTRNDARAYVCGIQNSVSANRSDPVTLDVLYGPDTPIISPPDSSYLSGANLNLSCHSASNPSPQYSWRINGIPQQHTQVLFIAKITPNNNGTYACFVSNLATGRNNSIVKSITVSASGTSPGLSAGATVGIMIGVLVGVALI
Chain of CEACAM6 (human) (P40199 35-320): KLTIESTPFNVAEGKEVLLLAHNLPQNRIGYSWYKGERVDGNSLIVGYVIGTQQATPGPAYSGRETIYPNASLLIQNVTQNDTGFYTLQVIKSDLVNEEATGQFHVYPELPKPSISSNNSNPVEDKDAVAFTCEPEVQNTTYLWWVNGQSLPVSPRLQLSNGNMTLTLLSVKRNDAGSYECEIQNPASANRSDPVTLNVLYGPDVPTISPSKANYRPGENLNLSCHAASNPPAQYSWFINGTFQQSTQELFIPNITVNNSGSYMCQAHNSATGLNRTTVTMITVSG

Substance: (14)-3s, anti-CEACAM5 x anti-CD3 DNL complex (two CH1-DDD2-Fab-hMN-14 + one scFv-AD2-Okt3) (bispecific antibody)
- T-cell mediated lysis of LS-174T, IC50 (CEACAM5 (human)): 2 pM

Substance: (19)-3s, anti-CD19 x anti-CD3 DNL complex (two CH1-DDD2-Fab-hA19 + one scFv-AD2-Okt3) (bispecific antibody)
- % of cell population in T cell-B cell association (CD3+CD20+) at 0.1 µg/mL (19)-3s (CD19 (human)): > 25%
- T-cell mediated killing of Daudi, LysisMax (CD19 (human)): 60%
- T-cell mediated killing of Nalm6, LysisMax (CD19 (human)): 93%
- T-cell mediated killing of Namalwa, LysisMax (CD19 (human)): 60%
- T-cell mediated killing of Raji, IC50 (CD19 (human)): 3000 pM
- T-cell mediated killing of Raji, LysisMax (CD19 (human)): 41%
- T-cell mediated killing of Ramos, IC50 (CD19 (human)): 0.17 pM
- T-cell mediated killing of Ramos, LysisMax (CD19 (human)): 79%
- association of Daudi cells with T cells after (19)-3s (CD19 (human)): > 90%
- co-binding of Daudi and T cells, % CD20+/CD7+ flow events after (19)-3s (CD19 (human)): 45.5%
- concentration at saturation of (19)-3s-mediated cell-to-cell association (Jurkat/Daudi) (CD19 (human)): 0.037 to 0.111 µg/mL
- ex vivo re-directed T-cell killing of Daudi, IC50 (CD19 (human)): 1 pM
- ex vivo re-directed T-cell killing of Jeko-1, IC50 (CD19 (human)): 3000 pM
- ex vivo re-directed T-cell killing of Nalm-6, IC50 (CD19 (human)): 6 pM
- ex vivo re-directed T-cell killing of Namalwa, IC50 (CD19 (human)): 63 pM
- ex vivo re-directed T-cell killing of Raji, IC50 (CD19 (human)): > 3000 pM
- ex vivo re-directed T-cell killing of Ramos, IC50 (CD19 (human)): 2 pM

Substance: (20)-3s, anti-CD20 x anti-CD3 DNL complex (two CH1-DDD2-Fab-hA20 + one scFv-AD2-Okt3) (bispecific antibody)
- T-cell mediated killing of Daudi, IC50 (CD20 (human)): < 0.3 pM
- T-cell mediated killing of Daudi, LysisMax (CD20 (human)): 90%
- T-cell mediated killing of Jeko, LysisMax (CD20 (human)): 90%
- T-cell mediated killing of Namalwa, LysisMax (CD20 (human)): 53%
- ex vivo re-directed T-cell killing of Daudi, IC50 (CD20 (human)): 0.3 pM
- ex vivo re-directed T-cell killing of Jeko-1, IC50 (CD20 (human)): 1 pM
- ex vivo re-directed T-cell killing of Namalwa, IC50 (CD20 (human)): 30 pM
- ex vivo re-directed T-cell killing of Ramos, IC50 (CD20 (human)): 0.4 pM

Substance: (C2)-3s, anti-HLA-DR x anti-CD3 DNL complex (two CH1-DDD2-Fab-hL243 + one scFv-AD2-Okt3) (bispecific antibody)
- T-cell mediated killing of Jeko-1, LysisMax (HLA-DR (human)): 88%
- ex vivo re-directed T-cell killing of Jeko-1, IC50 (HLA-DR (human)): 20 pM
- ex vivo re-directed T-cell killing of Ramos, IC50 (HLA-DR (human)): 2 pM

The next lines start with results.

- T-cell mediated lysis of NCI-N87, IC50 (CEACAM6 (human)): 3 pM
Substance: (15)-3s, anti-CEACAM6 x anti-CD3 DNL complex (two CH1-DDD2-Fab-hMN-15 + one scFv-AD2-Okt3) (bispecific antibody)

- T-cell mediated lysis of Daudi, IC50 (CD22 (human)): 5 pM
- T-cell mediated lysis of Daudi, LysisMax (CD22 (human)): 60%
Substance: (22)-3s, anti-CD22 x anti-CD3 DNL complex (two CH1-DDD2-Fab-hLL2 + one scFv-AD2-Okt3) (bispecific antibody)
- ex vivo re-directed T-cell killing of Daudi, IC50 (CD22 (human)): 6 pM
- ex vivo re-directed T-cell killing of Namalwa, IC50 (CD22 (human)): > 3000 pM
